Kd data for three substances are collected here from paper PMC8513623.

In assay [1] the target is Full-length zebrafish Cavin4b (Cavin4b-FL), His-ubiquitin tagged (zebrafish) (UniProt Q5PQY9). Briefly: ITC.
Assay [2] concerns the target Bin1b SH3 domain (zebrafish), N-terminally His-tagged (zebrafish). Briefly: ITC. On the technique in general: In ITC the heat of successive injections is recorded.

pKd: −log10 of the molar value.

Usually pKd stands for −log10 of the Kd, conventionally taken in molar units. Lower therefore signals a high Kd.

Substance “Bin1b SH3 domain (zebrafish), N-terminally His-tagged (domain or fragment)” showed a pKd in assay [1] of 4.25.
In assay [2], “Cavin4b PRD peptide (zebrafish Cavin4b proline-rich peptide) (from UniProt Q5PQY9 271-286)” showed a pKd of 4.21.
The same measure, in the same setting: as for “Chikungunya virus (CHIKV) proline-rich peptide”, the figure is 7.05.
